Values quoted from earlier work in article PMC10531495.
Where two headings read alike, the source gives them in different places.

Columns and labels:
IAPP (Homo sapiens) [1] = target: IAPP (Homo sapiens) (UniProt P10997)
IAPP (Homo sapiens) [2] = target: IAPP (Homo sapiens) (UniProt P10997); remark: listed apart in the source
IAPP (Homo sapiens) [3] = target: IAPP (Homo sapiens) (UniProt P10997); remark: listed apart in the source
[4] = target: Aβ monomer (Homo sapiens) (UniProt P05067)
IAPP (Homo sapiens) [5] = target: IAPP (Homo sapiens) (UniProt P10997); remark: listed apart in the source

Chain of IAPP (Homo sapiens) (P10997 32-73): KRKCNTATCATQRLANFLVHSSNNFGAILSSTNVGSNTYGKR
Chain of leucine enkephalin (P01210 whole entry, looked up): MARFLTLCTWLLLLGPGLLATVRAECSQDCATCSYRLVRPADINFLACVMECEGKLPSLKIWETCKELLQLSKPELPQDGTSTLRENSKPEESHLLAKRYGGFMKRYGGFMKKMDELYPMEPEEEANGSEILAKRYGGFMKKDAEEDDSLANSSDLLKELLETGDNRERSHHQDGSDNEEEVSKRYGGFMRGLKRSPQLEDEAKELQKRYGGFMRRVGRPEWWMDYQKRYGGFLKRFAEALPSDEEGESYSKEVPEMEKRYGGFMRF

Substance: Aβ(29–40) 29-40 (from UniProt P05067)
- Kd (IAPP (Homo sapiens) [1]): 200 nM

Substance: Aβ(25–35) 25-35 (from UniProt P05067)
- Kd (IAPP (Homo sapiens) [2]): 282 nM

Substance: Aβ(35–40) 35-40 (from UniProt P05067)
- Kd (IAPP (Homo sapiens) [3]): 354 nM

Substance: leucine enkephalin (from UniProt P01210)
- Kd [4]: 60000 nM

Substance: Aβ(1–40) 1-40 (from UniProt P05067)
- Kd (IAPP (Homo sapiens) [5]): 48.5 nM
